The target of test [1] is T1, human IL-11 (human, UniProt P20809 22-199).
T1 construct: bought from Invigate; also called hIL-11; hIL11
T1 sequence: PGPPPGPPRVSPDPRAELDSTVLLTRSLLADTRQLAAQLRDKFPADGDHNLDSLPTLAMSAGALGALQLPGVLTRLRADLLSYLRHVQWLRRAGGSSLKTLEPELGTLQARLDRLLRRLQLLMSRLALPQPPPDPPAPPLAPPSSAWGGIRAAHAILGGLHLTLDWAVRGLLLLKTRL
Nature of the test: SPR, antibody captured, IL-11 as analyte. The method, then: (§1) Antibodies were captured via anti-mouse Fc IgGs (“Mouse antibody capture kit, Order No. BR100383, Cytiva) covalently amine coupled to a Series S CM5 sensor chip (Cytiva). The amine coupling was carried out according to the manufacturer's instructions using 1-ethyl-3-(3-dimethylaminopropyl) carbodiimide hydrochloride (EDC), N-hydroxysuccinimide (NHS) and ethanolamine HCl, pH 8.5 (“Amine Coupling Kit” BR-1000-50, Cytiva.). Human IL-11 (Invigate, e.g., lot #C121021-19), and murine IL-11 (Invigate, e.g., lot #C210819-09) were used as analytes. […] Based on that experiment an IL-11 concentration range was chosen to optimally determine kinetics and affinity of anti-IL-11 antibodies in multicycle kinetics mode. The sensor surface was regenerated with glycine pH 1.7 after each antigen injection. Obtained sensorgrams were double referenced (subtraction of reference flow cell signal and buffer injection) and were fitted to a 1:1 Langmuir binding model to derive kinetic data using the Biacore T200 Evaluation software or the Biacore Insight software.
(§2) 42 hits from the IL-11 and […] screening analysis were selected, expressed by transient transfection of mammalian cells and purified as described in Example 15. Antibodies were then tested for human IL-11 and murine IL-11 binding by SPR as described in Example 16.
(In general: SPR reads the build-up and loss of mass on a sensor chip optically.)

Test [2] has as its target T2, murine IL-11 (mouse, UniProt P47873 22-199).
T2 construct: bought from Invigate; also called mIL-11; mIL11
T2 sequence: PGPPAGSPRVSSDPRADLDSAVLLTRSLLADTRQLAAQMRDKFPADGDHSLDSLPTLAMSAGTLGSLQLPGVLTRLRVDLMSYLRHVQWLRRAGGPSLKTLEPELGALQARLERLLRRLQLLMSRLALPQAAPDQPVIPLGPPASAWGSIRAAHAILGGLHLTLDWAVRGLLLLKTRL
As to the kind of experiment: SPR, antibody captured, IL-11 as analyte. How it is done:
as §1, §2

Test [3] addresses T3, human IL-11 (human, UniProt P20809 22-199).
T3 sequence: T1 sequence
As to the kind of experiment: cell-based or functional assay.

For test [4], the target named is T4, murine IL-11 (mouse, UniProt P47873 22-199).
T4 sequence: T2 sequence
Nature of the test: cell-based or functional assay.

The target in test [5] is T5, human IL2Ra (human, UniProt P01589 22-240, limits assumed).
T5 construct: bought protein, coated on the plate; also called hIL2RA; IL-2 receptor alpha
T5 sequence (looked up): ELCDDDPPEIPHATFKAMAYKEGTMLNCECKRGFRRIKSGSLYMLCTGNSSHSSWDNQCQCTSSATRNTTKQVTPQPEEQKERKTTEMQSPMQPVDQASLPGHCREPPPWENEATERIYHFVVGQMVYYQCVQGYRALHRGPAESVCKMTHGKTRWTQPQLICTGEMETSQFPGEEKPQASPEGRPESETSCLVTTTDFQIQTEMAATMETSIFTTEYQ
Nature of the test: IL2Ra direct binding ELISA, signal ratio to isotype control. The gist of the method:
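Plates coated overnight at 4-8 °C with IL2RA at 1 or 0 μg/ml, blocked with SmartBlock. Antibody dilution series from 1E-7 to 2E-13 M bound 90 min at room temperature, detected with HRP anti-mouse IgG and Amplex red/H2O2; fluorescence at 535/590 nm.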

Positions count from the first letter of the chain named.

B1: TPP-26290 (antibody, V domains shown)
VH: EVQLLESGGGLVQPGGSLRLSCAASGFTFSSYGMHWVRQAPGKGLEWVSVISYDGSYKYYADSVKGRFTISRDNSKNTLYLQMNSLRAEDTAVYYCAAGVPDYWGQGTLVTVSS
VL: QSVLTQPPSASGTPGQRVTISCTGSSSNIGAGMDVHWYQQLPGTAPKLLIYSNNERPSGVPDRFSGSKSGTSASLAISGLRSEDEADYYCAAWDDSLNGPVFGGGTKLTVL
notes: constant regions not restated
With B1, the values for the Kd in test [1] and in test [2] were 8.6 nM and 0.54 nM, respectively.

B2: TPP-26298 (antibody, V domains shown)
VH: B1 VH
VL: B1 VL with T23L, M33Y
notes: constant regions not restated
In the case of B2, the results for the Kd in test [1] and in test [2] were 13 nM and 0.73 nM, respectively.

B3: TPP-26323 (antibody, V domains shown)
VH: B1 VH
VL: B1 VL with M33Y, D95G
Take B3: in test [3], the “RGA Efficacy (%)” value came to 57.6% and the “RGA IC50” value was 2 nM. Besides, in test [4], the “RGA Efficacy (%)” value was determined as 95.9% and the “RGA IC50” value was determined as 0.92 nM. The “hIL2RA ELISA Binding: Ratio to Isotpye” value in test [5] stood at 256 ratio.

B4: TPP-26333 (antibody, V domains shown)
VH: B1 VH with M34F
VL: B1 VL with M33Y
notes: constant regions not restated
B4: the Kd in test [1] worked out at 11 nM.

B5: TPP-26328 (antibody, V domains shown)
VH: B1 VH with G99T
VL: B1 VL with M33Y
Turning to B5, the “RGA Efficacy (%)” value in test [3] amounted to 18.6%. For the same molecule, in test [4], the “RGA Efficacy (%)” value worked out at 70.8% and the “RGA IC50” value is 64 nM. In test [5], the “hIL2RA ELISA Binding: Ratio to Isotpye” value came to 27 ratio.

B6: TPP-26324 (antibody, V domains shown)
VH: B1 VH with A61R
VL: B1 VL with M33Y
As for B6, in test [3], the “RGA Efficacy (%)” value was determined as 59% and the “RGA IC50” value is 1.5 nM. In test [4], the “RGA Efficacy (%)” value is 92.4% and the “RGA IC50” value worked out at 1.3 nM. Also, the “hIL2RA ELISA Binding: Ratio to Isotpye” value in test [5] was 247 ratio.

B7: TPP-26299 (antibody, V domains shown)
VH: B1 VH
VL: B1 VL with M33Y, N98Y
notes: constant regions not restated
B7: the Kd in test [1] turned out to be 11 nM; in test [2] it was 0.63 nM.

B8: TPP-26333 (antibody, V domains shown)
VH: B1 VH with M34F
VL: B1 VL with M33Y
Regarding B8, in test [3], the “RGA Efficacy (%)” value is 64.7% and the “RGA IC50” value was found to be 13 nM. Also, in test [4], the “RGA Efficacy (%)” value was found to be 94.1% and the “RGA IC50” value was 1.2 nM. Moreover, the “hIL2RA ELISA Binding: Ratio to Isotpye” value in test [5] turned out to be 436 ratio.

B9: TPP-26332 (antibody, V domains shown)
VH: B1 VH with G33K
VL: B1 VL with M33Y
Turning to B9, the “RGA Efficacy (%)” value in test [3] was 0.8%; in test [4] it was 0.9%. Also, the “hIL2RA ELISA Binding: Ratio to Isotpye” value in test [5] amounted to 19 ratio.

B10: TPP-26293 (antibody, V domains shown)
VH: B1 VH
VL: B1 VL with G32W, M33Y
notes: constant regions not restated
In the case of B10, the Kd came out at 11 nM in test [1] and 0.26 nM in test [2].

B11: TPP-26291 (antibody, V domains shown)
VH: B1 VH
VL: B1 VL with M33Y, D95P
notes: constant regions not restated
In the case of B11, the results for the Kd in test [1] and in test [2] were 9.7 nM and 0.94 nM, respectively.

B12: TPP-26325 (antibody, V domains shown)
VH: B1 VH with S31W
VL: B1 VL with M33Y
For B12, in test [3], the “RGA Efficacy (%)” value turned out to be 81.4% and the “RGA IC50” value is 1.7 nM. In test [4], the “RGA Efficacy (%)” value was found to be 93% and the “RGA IC50” value stood at 1.3 nM. In addition, the “hIL2RA ELISA Binding: Ratio to Isotpye” value in test [5] was determined as 542 ratio.

B13: TPP-26327 (antibody, V domains shown)
VH: B1 VH with S52R
VL: B1 VL with M33Y
As for B13, in test [3], the “RGA Efficacy (%)” value was found to be 15%. Besides, in test [4], the “RGA Efficacy (%)” value was 38% and the “RGA IC50” value was 470 nM. For the same molecule, in test [5], the “hIL2RA ELISA Binding: Ratio to Isotpye” value was 11 ratio.

B14: TPP-26331 (antibody, V domains shown)
VH: B1 VH with M34G
VL: B1 VL with M33Y
For B14, in test [3], the “RGA Efficacy (%)” value came to 54.9% and the “RGA IC50” value turned out to be 5.4 nM. Besides, in test [4], the “RGA Efficacy (%)” value amounted to 90.9% and the “RGA IC50” value is 1.5 nM. Further, in test [5], the “hIL2RA ELISA Binding: Ratio to Isotpye” value worked out at 107 ratio.

B15: TPP-26294 (antibody, V domains shown)
VH: B1 VH
VL: B1 VL with G32A, M33Y
notes: constant regions not restated
Take B15: the results for the Kd in test [1] and in test [2] were 11 nM and 0.82 nM, respectively.

B16: TPP-26302 (antibody, V domains shown)
VH: B1 VH
VL: B1 VL with M33Y, A91S
notes: constant regions not restated
B16: the Kd in test [1] was 13 nM; in test [2], 0.7 nM.

B17: TPP-26326 (antibody, V domains shown)
VH: B1 VH with S31Y
VL: B1 VL with M33Y
Take B17: the “RGA Efficacy (%)” value in test [3] worked out at 72%; in test [4], 83%. Moreover, the “RGA IC50” value in test [3] turned out to be 5.4 nM; in test [4] it was 2 nM. In addition, in test [5], the “hIL2RA ELISA Binding: Ratio to Isotpye” value turned out to be 516 ratio.

B18: TPP-26300 (antibody, V domains shown)
VH: B1 VH
VL: B1 VL with M33Y, D95S
notes: constant regions not restated
Consider B18, for which the Kd in test [1] is 9.2 nM; in test [2] it was 0.45 nM.

B19: TPP-26330 (antibody, V domains shown)
VH: B1 VH with S31F
VL: B1 VL with M33Y
Turning to B19, the “RGA Efficacy (%)” value was 64.8% in test [3] and 88.2% in test [4]. In addition, the “RGA IC50” value came to 3.4 nM in test [3] and 1.3 nM in test [4]. The “hIL2RA ELISA Binding: Ratio to Isotpye” value in test [5] was 264 ratio.

B20: TPP-26292 (antibody, V domains shown)
VH: B1 VH
VL: B1 VL with M33Y, D95E
notes: constant regions not restated
On to B20, for which the Kd is 13 nM in test [1] and 0.48 nM in test [2].

B21: TPP-26329 (antibody, V domains shown)
VH: B1 VH with Y32W
VL: B1 VL with M33Y
As to B21, in test [3], the “RGA Efficacy (%)” value was 67.1% and the “RGA IC50” value is 2.6 nM. In test [4], the “RGA Efficacy (%)” value is 95.5% and the “RGA IC50” value was 1 nM. Further, the “hIL2RA ELISA Binding: Ratio to Isotpye” value in test [5] was determined as 247 ratio.

B22: TPP-26295 (antibody, V domains shown)
VH: B1 VH
VL: B1 VL with M33Y, D95H
notes: constant regions not restated
For the molecule B22, the Kd in test [1] is 9.8 nM; in test [2] it was 0.65 nM.

B23: TPP-26296 (antibody, V domains shown)
VH: B1 VH
VL: B1 VL with M33Y, D95N
notes: constant regions not restated
As for B23, the Kd in test [1] was 14 nM; in test [2], 0.71 nM.

B24: TPP-26297 (antibody, V domains shown)
VH: B1 VH
VL: B1 VL with M33Y, D94Q
notes: constant regions not restated
With B24, the Kd in test [1] was 13 nM; in test [2] it was 0.89 nM.

One may read the Kd as a measure of binding affinity in units of concentration. Low readings indicate higher affinity, high ones lower affinity.

The values above are taken from patent US20240317847A1 (Bayer, published 2024).
